From patent publication US9181310B2 (priority 2003, dated 2015)
“Also recorded” adds a separate entry of the source. Where two headings read alike, the source gives them in different places. No end group written: not given here.

Legend:
[1] = incubated with intercellular plant fluid of rice; cited from earlier work
[2] = incubated with intercellular plant fluid of potato; cited from earlier work
[3] = test system: R. solanacearum strain Rsp446; format: in vivo; settings: after 68 days
[4] = test system: X. pelargonii strain CHSC; test: Pathogen challenge of transgenic geranium; format: in vivo
Description: Following inoculation, plants were held at 32° C. The circled region was cut out, and contained ca. 10^5 cfu/cm^2 live X. pelargonii cells (for details, refer Example 11 below). Photo taken four weeks after inoculation.
Following inoculation, plants were held at 32° C. […] Photo taken four weeks after inoculation.
Cell counts were taken daily for nine days by removing circular sections totaling 1 square centimeter (cm^2) using a cork borer from three inoculated leaves in the area most likely to contain pathogen cells (refer FIGS. 1 and 2). These leaf sections were macerated with a mortar and pestle and 1 milliliter of buffer, diluted using a 1:10 dilution series and 10 microliter drops placed on solid growth medium for counting. […] These plants were both immune to X. pelargonii infection, and rapidly brought the artificially inoculated pathogen population to extinction.
Inoculations were performed using liquid culture grown X. pelargonii cells, sprayed on the leaves at a concentration of 10^7 colony forming units per milliliter (cfu/ml) each. X. pelargonii was also inoculated using scissors dipped in 10^9 cfu/ml of cells to clip the leaves in several places on the same plants that were sprayed. Following X. pelargonii inoculation, plants were held at 32° C. to encourage pathogen growth and symptom development. Four weeks after inoculation, photographs were taken of both nontransgenic geranium variety “Avenida” inoculated with X. pelargonii (FIG. 1) and transgenic geranium of the same variety “Avenida” expressing BombBC inoculated with X. pelargonii (FIG. 2), and circular sections totaling 1 square centimeter (cm^2) were removed using a cork borer from three inoculated leaves in the area most likely to contain pathogen cells (refer FIGS. 1 and 2). Consistently, 10^5 cfu/ml of X. pelargonii was recovered from nontransgenic geranium variety “Avenida” plants at four weeks after inoculation (FIG. 3), and symptoms progressed systemically until the entire plant was dead, usually by 12 weeks after inoculation. […] These plants were immune to X. pelargonii infection.

[5] = test system: X. pelargonii strain CHSC; settings: in vivo
[6] = test system: R. solanacearum strain Rsp673; format: in vivo; settings: transgenic geranium Avenida
[7] = test system: Nicotiana tabaccum cv. Xanthi; test: Stable transformation of tobacco, effect on the plant; settings: stable transformation with pIPG786
[8] = test system: geranium (Pelargonium X hortorum) cv. Avenida; test: Stable transformation of geranium, effect on the plant; settings: stable transformation with pIPG787
[9] = test system: E. coli strains ADA410 P3rpoH::lacZ reporter (LPS or outer membrane damage); test: P3rpoH::lacZ reporter, purified protein droplets on ADA410 cells on X-gal agar; settings: ten microliter droplets of purified protein, 24 hr
[10] = test system: rice (Oryza sativa japonica) cv. TP309; test: Stable transformation of rice, effect on the plant; settings: stable transformation with pIPG787
X. pelargonii = settings: in vivo
R. solanacearum = format: in vivo; settings: sweet pepper leaves, transient expression from pIPG780, 48 hrs after challenge
E. coli ER2566 [11] = format: cell-based
[12] = test system: Ca. Liberibacter asiaticus; format: in vivo; settings: transgenic tobacco Xanthi, same on retest three weeks later
E. coli ER2566 [13] = format: cell-based; settings: for bacterial stasis induced by expression: berberine chloride 250 ug/ml, 0.25 mM IPTG, 20 hrs of induction
[14] = test system: LPS of X. campestris pv. pelargonii, X. citri, Rhizobium leguminosarum and Ralstonia solanacearum; format: binding; settings: treated LPS lanes, Western blot
[15] = test system: purified LPS extracted from X. campestris pv. pelargonii, X. citri, Rhizobium leguminosarum and Ralstonia solanacearum; format: biochemical; settings: 5 ug purified protein, room temperature, 2 hours
[16] = Exp. 1, cutting (T0), inoculum 5 × 10^7 cfu/ml
[17] = Exp. 2, cutting (T0), inoculum 1 × 10^8 cfu/ml

Molecule: cecropin B: linear lytic peptide rapidly degraded by plant proteases (KWKVFKKIEKMGRNIRNGIVKAGPAIAVLGEAKAL; ends and bridges not checked; UniProt P01508 27-61, looked up)
- half-life [1]: about 25 hours
- half-life [2]: about three

B1: BombBC: Bacteriophage Outer Membrane Breaching protein of Xanthomonas phage P15 (Xp15) ORF BC, 17.9 kD, SEQ ID NO. 17 (protein, listed as Xanthomonas campestris)
chain: MSDQTDTTQTTPAEKAPPKEIIRGRMPIAVVALARFGSQSTTTTKAAADALGTTVGKIDDIRKNRNFAYVTADFKPTEAQKADGIEWLKRHPVGADALIEELQNLPVATAEESAAFEQVRASARGQNAKTAEGEVAQAGGGNRRKKKEKPAEAGEVQNPPAADGDSLLS
- number of survivors/total tested [3, 16]: 10/15
- per cent survivors [3, 16]: (63%)
- number of survivors/total tested [3, 17]: 9/20
- per cent survivors [3, 17]: (45%)
- number of survivors/total tested ([3]; Exp. 3, seeded (T1), inoculum 2 × 10^8 cfu/ml): 0/21
- resistance status to X. pelargonii infection ([4]; transgenic geranium Avenida): immune
- X. pelargonii cells in cut out leaf region ([4]; transgenic geranium Avenida leaf, four weeks after inoculation): no detected X. pelargonii cells
- symptoms of geranium blight ([4]; transgenic geranium Avenida, 32° C.): no evidence of symptoms
- living X. pelargonii cells recovered ([4]; transgenic geranium Avenida, after five days following inoculation): no living X. pelargonii cells were recovered
- HR symptoms elicited by X. pelargonii [5]: abolished
- symptom development of bacterial wilt ([6]; syringe infiltration and soil inoculation, 32° C.): failed to progress past the leaf area where the pathogen was directly infiltrated; also recorded: No symptom development, other than that which initially developed in, and stayed restricted to, the region of inoculation
- detected R. solanacearum cells ([6]; twelve weeks after inoculation): no detected R. solanacearum cells
- detrimental effect on tobacco plants [7]: not detrimental
- detrimental effect on geranium plants [8]: not detrimental
- blue color around ADA410 cells (P3rpoH::lacZ activation) [9]: Blue color slowly developed and intensified
- detrimental effect on rice plants [10]: not detrimental
- drop in the number of colony forming units vs. control leaves (X. pelargonii): 100 ×
- pathogenic symptoms caused by X. pelargonii (X. pelargonii): greatly reduced
- HR symptoms elicited by R. solanacearum (R. solanacearum): abolished
- activity of expression clone (growth in presence of berberine chloride) (E. coli ER2566 [11]): Active
- plants symptomatic for greening ([12]; 4 weeks connected to dodder): neither of the two
- plants PCR positive for greening ([12]; nested PCR): neither were PCR positive
- bacterial stasis induced by expression (E. coli ER2566 [13]): clearly induced
- attachment to LPS [14]: attached to the degraded LPS of all species tested
- degradation of LPS [15]: enzymatically degrades LPS

B2: BombOrfL: Phage 15 ORF L from Xanthomonas campestris pv. pelargonii, SEQ ID No. 15 (protein, listed as Xanthomonas campestris)
chain: MPTVDATPGSITANSYVTVAEANSYFDGSYGRPLWTSASEDEKASLVISASRYLDQMMAWIGAPTNPEQSMWWPCKNAVIGGMTLSQVSIPVKVKIAVFELAYFMLESGAALSFADQTIDSVKVGTIRVEFTKNSTDAGLPTFVEAMLSGFGSPVLYGSNAARSIDLVRA
- activity of expression clone (growth in presence of berberine chloride) (E. coli ER2566 [11]): Active

B3: D1: BombBC deletion, aa26-169 of BC, SEQ ID 6 (protein)
chain: MPIAVVALARFGSQSTTTTKAAADALGTTVGKIDDIRKNRNFAYVTADFKPTEAQKADGIEWLKRHPVGADALIEELQNLPVATAEESAAFEQVRASARGQNAKTAEGEVAQAGGGNRRKKKEKPAEAGEVQNPPAADGDSLLS
modifications: mutant D1 predicted amino acid sequence
- bacterial stasis induced by expression (E. coli ER2566 [13]): clearly induced
- activity of expression clone (growth in presence of berberine chloride) (E. coli ER2566 [13]; berberine chloride (5 micrograms/ml), 20 h after induction): Active

B4: BombORF35PA: Phage PhiKMV ORF 35 from Pseudomonas aeruginosa, SEQ ID No. 9 (protein, listed as Pseudomonas aeruginosa)
chain: MAFWLPLLAAGGMSALQQGLANKEERNKIKAENKARLKTDLDNLGAAARDIANLGVMAASYRKQAVASQVEAKRQGMLAGGSAEAQAGAFGVKGASVDAVALDIEREVGEALIQIDDNLDNQMWNLAEQAHSIQAQAKAGLLGQKSTTAGQRSPLVAGLMSAGSLYASQYFKFGATPKGGN
- activity of expression clone (growth in presence of berberine chloride) (E. coli ER2566 [11]): Active

B5: BombOrf9: Phage 13 ORF 9 from Xanthomonas campestris pv. pelargonii, SEQ ID No. 13 (protein, listed as Xanthomonas campestris)
chain: MVVVAQGTVPAKVHPQLTNLTALFADAVGLFLDVSDKVADLLVRFADVEAQGAELLLDLAHLAVPASVVHPTHAGQDQTVPAASDILHGVLEGQPVALVVNQRALRAAQLNPLLALRLDVEAVADQDAEGGAVAHAHAGDQLAVEQKLQILLERFGHDALAGHRRVEPIAYLVDVRSWEAGALDADQPRDDTADGDDAHAQRFVRHVERDGFGSGVLHPSQVRQRLAVLVDDFVEGSRVALDDRANHGEVGVDRVHQ
- activity of expression clone (growth in presence of berberine chloride) (E. coli ER2566 [11]): Active
- relative strength of activity in E. coli (E. coli ER2566 [11]): Weak activity
